Values quoted from earlier work in article doi:10.1101/2021.10.04.463074.

Biological target: Asp85 (UniProt position 98, WARYADWLFTT)
Conditions: resting (ground) state of bR, protonated Schiff base, all-trans retinal

Bacteriorhodopsin (bR) (Halobacterium salinarum (named Halobacterium halobium only in titles of cited references))
pKa: 2 to 3
